Experimental findings from patent publication US9333272B2, “Fibrin binding peptide conjugates for diagnostic and therapeutic applications” (Bracco Imaging SpA, priority 2006, dated 2016) are described below.

Ends that are not written are not given here.

The target of test [1] is T1, fibrin in human plasma clots (Homo sapiens, UniProt P02671+P02675+P02679).
T1 construct: tissue Dade Behring Control Plasma N; host or cells: clots formed in vitro from pooled human plasma with Pathromtin SL and CaCl2
T1 sequence (P02671 36-629 limits assumed): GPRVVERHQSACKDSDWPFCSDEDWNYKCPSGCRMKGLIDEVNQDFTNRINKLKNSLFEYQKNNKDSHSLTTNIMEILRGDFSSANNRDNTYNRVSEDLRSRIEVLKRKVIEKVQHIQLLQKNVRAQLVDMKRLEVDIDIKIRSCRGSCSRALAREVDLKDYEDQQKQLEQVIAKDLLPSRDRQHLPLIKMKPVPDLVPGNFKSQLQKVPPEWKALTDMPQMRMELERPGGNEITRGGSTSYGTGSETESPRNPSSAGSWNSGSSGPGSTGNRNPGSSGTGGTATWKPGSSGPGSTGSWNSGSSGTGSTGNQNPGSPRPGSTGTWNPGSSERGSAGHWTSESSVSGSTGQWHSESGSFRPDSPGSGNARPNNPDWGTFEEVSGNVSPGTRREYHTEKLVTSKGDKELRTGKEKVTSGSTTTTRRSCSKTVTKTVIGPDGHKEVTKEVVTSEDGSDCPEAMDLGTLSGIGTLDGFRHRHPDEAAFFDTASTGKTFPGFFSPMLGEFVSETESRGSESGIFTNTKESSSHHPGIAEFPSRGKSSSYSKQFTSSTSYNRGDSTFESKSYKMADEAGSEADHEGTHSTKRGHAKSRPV
T1 sequence (P02675 45-491 limits assumed): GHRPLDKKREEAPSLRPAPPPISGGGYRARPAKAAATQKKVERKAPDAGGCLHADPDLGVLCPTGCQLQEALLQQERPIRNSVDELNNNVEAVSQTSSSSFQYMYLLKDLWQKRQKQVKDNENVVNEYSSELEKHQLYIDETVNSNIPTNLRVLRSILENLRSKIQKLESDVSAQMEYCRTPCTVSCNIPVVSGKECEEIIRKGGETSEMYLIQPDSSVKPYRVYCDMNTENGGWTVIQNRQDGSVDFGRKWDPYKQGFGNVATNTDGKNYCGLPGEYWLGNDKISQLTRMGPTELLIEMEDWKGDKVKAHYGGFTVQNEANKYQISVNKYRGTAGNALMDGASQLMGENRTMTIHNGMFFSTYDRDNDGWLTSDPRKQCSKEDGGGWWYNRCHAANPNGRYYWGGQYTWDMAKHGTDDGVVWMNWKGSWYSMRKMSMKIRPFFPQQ
T1 sequence (P02679 27-437 isoform P02679-2 limits assumed): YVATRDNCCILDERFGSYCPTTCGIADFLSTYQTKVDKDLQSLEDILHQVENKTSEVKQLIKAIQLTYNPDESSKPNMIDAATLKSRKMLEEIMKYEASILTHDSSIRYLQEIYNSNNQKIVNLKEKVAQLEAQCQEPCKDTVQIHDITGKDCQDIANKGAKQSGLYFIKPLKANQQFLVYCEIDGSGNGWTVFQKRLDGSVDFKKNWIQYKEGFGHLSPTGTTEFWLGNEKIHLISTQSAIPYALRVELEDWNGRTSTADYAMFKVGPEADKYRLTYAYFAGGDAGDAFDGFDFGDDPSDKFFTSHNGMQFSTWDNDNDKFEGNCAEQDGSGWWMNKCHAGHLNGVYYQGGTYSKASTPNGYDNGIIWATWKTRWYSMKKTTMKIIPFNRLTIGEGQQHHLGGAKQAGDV
The test can be described thus: In vitro MRI of plasma clots at 100 μM (Example 14). Here is the method:
Small plasma clots from different species (human, guinea pig and mouse) were formed by combining citrate plasma (1:3,v/v) phospholipids (Reagent Pathromtin) and CaCl2 0.008 M (Dade Behring, Germany) into small 2 ml vials at 37° C. Clots were washed 3 times with TBS 1× and incubated with contrast agents at a concentration of 100 μM of complex, for 30 minutes at 37° C. Two clots were prepared for each solution of incubation. After the incubation clots were washed 4 times with TBS 1× and placed into small vials filled with TBS 1× for MRI analysis. […] Maximum signal intensity of each clot was measured in recovered MR images and compared to the signal from clots incubated with TBS. […]
(§1) High resolution MRI was then performed at 2 Tesla by using T1-weighted Spin-Echo (SE) sequences. T1 maps were also calculated from the acquisitions of 2D gradient echo images or inversion recovery spin echo images.
(§2) The maximum signal intensity was measured within a region of interest (ROI) including a clot, drawn by an operator on each MR image using a dedicated software (MR Research Systems Ltd, Surrey UK). Max signal intensity enhancement (Enh %) was determined as: Enh %=100*(SIx−SI0)/SI0 where SI0 and SIx are the signal intensity of clots incubated without and with test compounds, respectively.

Test [2] concerns the target T2, fibrin in human clots (Homo sapiens, UniProt P02671+P02675+P02679).
T2 construct: tissue Dade Behring Control Plasma N; host or cells: clots formed in vitro from pooled human plasma with Pathromtin SL and CaCl2
T2 sequence (P02671 36-629 limits assumed): T1 sequence (P02671 36-629 limits assumed)
T2 sequence (P02675 45-491 limits assumed): T1 sequence (P02675 45-491 limits assumed)
T2 sequence (P02679 27-437 isoform P02679-2 limits assumed): T1 sequence (P02679 27-437 isoform P02679-2 limits assumed)
Briefly: In vitro MRI of human clots at different incubation concentrations (Example 15). Here is the method:
By following the above procedure, a second wider group of chelate compounds of the invention including, for instance, Chelate Complexes from 1 to 7 and the Reference Compounds from 1 to 6 were tested on human clots at different incubation concentration (25 to 400 μM of complex). Signal enhancement (%) was then determined for each clots by MR Imaging at 2T and corresponding Gd content in clots was measured by ICP.
By comparing the signal enhancement in clots, for instance at incubation concentration of 100 μM of peptide, tested compounds could be classified in term of performance as follows (Max signal enhancement was normalized to the chelate complex 4): […]
as §1, §2

Regarding “Chelate Complex 1: Gd chelate (four DTPA-Glu) conjugated via linker to fibrin-binding peptide SEQ ID NO:001 (WQPCPAESWTFCWDPGGGK; cysteine pairing not given here; also: Gd chelate (four DTPA-Glu) conjugated via linker, site not given here, metal complex: Gd)”, the “Signal enhancement in clots, comparison in words” value is “provides the maximum signal enhancement” in test [1] (100 μM of complex) and “best results” in test [2] (incubation concentration 100 μM). Moreover, the “Max signal Enhancement at 100 μM” value in test [1] (clots incubated with 100 μM of complex, 30 min, 37°C, T1-weighted MRI at 2T, normalized to chelate complex 1) is 100%. In addition, in test [2] (human clots, incubation 100 μM of peptide, MRI at 2T, normalized to chelate complex 4), the “Max signal Enhancement (%) at 100 μM” value worked out at 93.2%.
